In paper PMC5624674, “CbtA toxin of Escherichia coli inhibits cell division and cell elongation via direct and independent interactions with FtsZ and MreB” (PLoS Genetics, 2017):

B1: α-FtsZ fusion protein (wild-type E. coli FtsZ) (natural protein, UniProt P0A9A6 1-383, looked up)
chain: MFEPMELTNDAVIKVIGVGGGGGNAVEHMVRERIEGVEFFAVNTDAQALRKTAVGQTIQIGSGITKGLGAGANPEVGRNAADEDRDALRAALEGADMVFIAAGMGGGTGTGAAPVVAEVAKDLGILTVAVVTKPFNFEGKKRMAFAEQGITELSKHVDSLITIPNDKLLKVLGRGISLLDAFGAANDVLKGAVQGIAELITRPGLMNVDFADVRTVMSEMGYAMMGSGVASGEDRAEEAAEMAISSPLLEDIDLSGARGVLVNITAGFDLRLDEFETVGNTIRAFASDNATVVIGTSLDPDMNDELRVTVVATGIGMDKRPEITLVTNKQVQQPVMDRYQQHGMAPLTQEQKPVAKVVNDNAPQTAKEPDYLDIPAFLRKQAD
notes: also called λCI-FtsZ; Eco FtsZ; not shown: RNA polymerase α subunit N-terminal domain, N-terminal, kept
B2: α-FtsZ-D180N (natural protein, E. coli, UniProt P0A9A6 1-383, looked up)
chain: MFEPMELTNDAVIKVIGVGGGGGNAVEHMVRERIEGVEFFAVNTDAQALRKTAVGQTIQIGSGITKGLGAGANPEVGRNAADEDRDALRAALEGADMVFIAAGMGGGTGTGAAPVVAEVAKDLGILTVAVVTKPFNFEGKKRMAFAEQGITELSKHVDSLITIPNDKLLKVLGRGISLLNAFGAANDVLKGAVQGIAELITRPGLMNVDFADVRTVMSEMGYAMMGSGVASGEDRAEEAAEMAISSPLLEDIDLSGARGVLVNITAGFDLRLDEFETVGNTIRAFASDNATVVIGTSLDPDMNDELRVTVVATGIGMDKRPEITLVTNKQVQQPVMDRYQQHGMAPLTQEQKPVAKVVNDNAPQTAKEPDYLDIPAFLRKQAD
notes: not shown: RNA polymerase α subunit N-terminal domain, N-terminal, kept
B3: α-FtsZ-D180K (natural protein, E. coli, UniProt P0A9A6 1-383, looked up)
chain: MFEPMELTNDAVIKVIGVGGGGGNAVEHMVRERIEGVEFFAVNTDAQALRKTAVGQTIQIGSGITKGLGAGANPEVGRNAADEDRDALRAALEGADMVFIAAGMGGGTGTGAAPVVAEVAKDLGILTVAVVTKPFNFEGKKRMAFAEQGITELSKHVDSLITIPNDKLLKVLGRGISLLKAFGAANDVLKGAVQGIAELITRPGLMNVDFADVRTVMSEMGYAMMGSGVASGEDRAEEAAEMAISSPLLEDIDLSGARGVLVNITAGFDLRLDEFETVGNTIRAFASDNATVVIGTSLDPDMNDELRVTVVATGIGMDKRPEITLVTNKQVQQPVMDRYQQHGMAPLTQEQKPVAKVVNDNAPQTAKEPDYLDIPAFLRKQAD
notes: as for B2
B4: α-FtsZ-S177P (natural protein, E. coli, UniProt P0A9A6 1-383, looked up)
chain: MFEPMELTNDAVIKVIGVGGGGGNAVEHMVRERIEGVEFFAVNTDAQALRKTAVGQTIQIGSGITKGLGAGANPEVGRNAADEDRDALRAALEGADMVFIAAGMGGGTGTGAAPVVAEVAKDLGILTVAVVTKPFNFEGKKRMAFAEQGITELSKHVDSLITIPNDKLLKVLGRGIPLLDAFGAANDVLKGAVQGIAELITRPGLMNVDFADVRTVMSEMGYAMMGSGVASGEDRAEEAAEMAISSPLLEDIDLSGARGVLVNITAGFDLRLDEFETVGNTIRAFASDNATVVIGTSLDPDMNDELRVTVVATGIGMDKRPEITLVTNKQVQQPVMDRYQQHGMAPLTQEQKPVAKVVNDNAPQTAKEPDYLDIPAFLRKQAD
notes: as for B2
B5: α-FtsZ-L169P (natural protein, E. coli, UniProt P0A9A6 1-383, looked up)
chain: MFEPMELTNDAVIKVIGVGGGGGNAVEHMVRERIEGVEFFAVNTDAQALRKTAVGQTIQIGSGITKGLGAGANPEVGRNAADEDRDALRAALEGADMVFIAAGMGGGTGTGAAPVVAEVAKDLGILTVAVVTKPFNFEGKKRMAFAEQGITELSKHVDSLITIPNDKLPKVLGRGISLLDAFGAANDVLKGAVQGIAELITRPGLMNVDFADVRTVMSEMGYAMMGSGVASGEDRAEEAAEMAISSPLLEDIDLSGARGVLVNITAGFDLRLDEFETVGNTIRAFASDNATVVIGTSLDPDMNDELRVTVVATGIGMDKRPEITLVTNKQVQQPVMDRYQQHGMAPLTQEQKPVAKVVNDNAPQTAKEPDYLDIPAFLRKQAD
notes: as for B2
B6: α-MreB-E196G (natural protein, E. coli, UniProt P0A9X4 1-347, looked up)
chain: MLKKFRGMFSNDLSIDLGTANTLIYVKGQGIVLNEPSVVAIRQDRAGSPKSVAAVGHDAKQMLGRTPGNIAAIRPMKDGVIADFFVTEKMLQHFIKQVHSNSFMRPSPRVLVCVPVGATQVERRAIRESAQGAGAREVFLIEEPMAAAIGAGLPVSEATGSMVVDIGGGTTEVAVISLNGVVYSSSVRIGGDRFDGAIINYVRRNYGSLIGEATAERIKHEIGSAYPGDEVREIEVRGRNLAEGVPRGFTLNSNEILEALQEPLTGIVSAVMVALEQCPPELASDISERGMVLTGGGALLRNLDRLLMEETGIPVVVAEDPLTCVARGGGKALEMIDMHGGDLFSEE
notes: as for B2
B7: α-MreB-E262G (natural protein, E. coli, UniProt P0A9X4 1-347, looked up)
chain: MLKKFRGMFSNDLSIDLGTANTLIYVKGQGIVLNEPSVVAIRQDRAGSPKSVAAVGHDAKQMLGRTPGNIAAIRPMKDGVIADFFVTEKMLQHFIKQVHSNSFMRPSPRVLVCVPVGATQVERRAIRESAQGAGAREVFLIEEPMAAAIGAGLPVSEATGSMVVDIGGGTTEVAVISLNGVVYSSSVRIGGDRFDEAIINYVRRNYGSLIGEATAERIKHEIGSAYPGDEVREIEVRGRNLAEGVPRGFTLNSNEILEALQGPLTGIVSAVMVALEQCPPELASDISERGMVLTGGGALLRNLDRLLMEETGIPVVVAEDPLTCVARGGGKALEMIDMHGGDLFSEE
notes: as for B2
B8: α-MreB-V173A (natural protein, E. coli, UniProt P0A9X4 1-347, looked up)
chain: MLKKFRGMFSNDLSIDLGTANTLIYVKGQGIVLNEPSVVAIRQDRAGSPKSVAAVGHDAKQMLGRTPGNIAAIRPMKDGVIADFFVTEKMLQHFIKQVHSNSFMRPSPRVLVCVPVGATQVERRAIRESAQGAGAREVFLIEEPMAAAIGAGLPVSEATGSMVVDIGGGTTEAAVISLNGVVYSSSVRIGGDRFDEAIINYVRRNYGSLIGEATAERIKHEIGSAYPGDEVREIEVRGRNLAEGVPRGFTLNSNEILEALQEPLTGIVSAVMVALEQCPPELASDISERGMVLTGGGALLRNLDRLLMEETGIPVVVAEDPLTCVARGGGKALEMIDMHGGDLFSEE
notes: as for B2
B9: α-MreB-I126V (natural protein, E. coli, UniProt P0A9X4 1-347, looked up)
chain: MLKKFRGMFSNDLSIDLGTANTLIYVKGQGIVLNEPSVVAIRQDRAGSPKSVAAVGHDAKQMLGRTPGNIAAIRPMKDGVIADFFVTEKMLQHFIKQVHSNSFMRPSPRVLVCVPVGATQVERRAVRESAQGAGAREVFLIEEPMAAAIGAGLPVSEATGSMVVDIGGGTTEVAVISLNGVVYSSSVRIGGDRFDEAIINYVRRNYGSLIGEATAERIKHEIGSAYPGDEVREIEVRGRNLAEGVPRGFTLNSNEILEALQEPLTGIVSAVMVALEQCPPELASDISERGMVLTGGGALLRNLDRLLMEETGIPVVVAEDPLTCVARGGGKALEMIDMHGGDLFSEE
notes: as for B2

What was measured:
Experiment in all cases: two-hybrid
[1] = molecular target: T1, λCI-ZipACTD (residues 186–328) (E. coli, UniProt P77173 186-328); conditions: partners not purified
T1 construct: also called C-terminal domain of ZipA; not shown: λCI, N-terminal, kept

two-hybrid = molecular target: the molecule itself
[2] = molecular target: T2, λCI-CbtA fusion protein (wild-type CbtA toxin of E. coli) (E. coli, UniProt P64524 1-124); conditions: partners not purified
T2 construct: also called YeeV; source: bacterial two-hybrid fusion, produced in E. coli reporter strain FW102 OL2-62; not shown: λCI, N-terminal, kept
T2 sequence: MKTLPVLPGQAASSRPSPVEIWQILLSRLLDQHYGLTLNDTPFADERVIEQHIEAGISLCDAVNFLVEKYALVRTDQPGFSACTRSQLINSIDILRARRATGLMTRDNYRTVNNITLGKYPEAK

[3] = molecular target: B1; conditions: partners not purified
λCI-CbtA-V48E = molecular target: T3, λCI-CbtA-V48E (E. coli, UniProt P64524 1-124, V48E); conditions: partners not purified
T3 construct: source: bacterial two-hybrid fusion, produced in E. coli reporter strain FW102 OL2-62; not shown: λCI, N-terminal, kept
T3 sequence: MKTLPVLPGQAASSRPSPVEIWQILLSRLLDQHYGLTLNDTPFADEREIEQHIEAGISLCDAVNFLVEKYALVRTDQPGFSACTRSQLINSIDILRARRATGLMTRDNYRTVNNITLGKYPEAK

[4] = molecular target: T4, λCI-RodZNTD (residues 2–84) (E. coli, UniProt P27434 2-84); conditions: partners not purified
T4 construct: also called cytoplasmic N-terminal domain of RodZ; not shown: λCI, N-terminal, kept
T4 sequence (P27434 2-84): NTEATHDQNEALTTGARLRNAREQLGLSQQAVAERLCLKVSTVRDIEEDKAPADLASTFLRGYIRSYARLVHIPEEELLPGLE

Binder	percent reduction of lacZ expression against wild-type α-FtsZ [3]	percent reduction of lacZ expression against wild-type α-MreB [4]	other results
B1			fold increase in lacZ expression [1]: 10 fold; fold increase in lacZ expression (two-hybrid): 4 fold; fold increase in lacZ expression [2]: 18 fold
B2	< 25%		
B3			fold increase in lacZ expression (λCI-CbtA-V48E): 9 fold
B4	< 25%		
B5	< 25%		
B6		< 30%	
B7		< 30%	
B8		< 30%	
B9		< 30%	
